Test results: patent US20230265421

Tested on: T1, dFrCas9 (Faecalibaculum rodentium)
T1 sequence: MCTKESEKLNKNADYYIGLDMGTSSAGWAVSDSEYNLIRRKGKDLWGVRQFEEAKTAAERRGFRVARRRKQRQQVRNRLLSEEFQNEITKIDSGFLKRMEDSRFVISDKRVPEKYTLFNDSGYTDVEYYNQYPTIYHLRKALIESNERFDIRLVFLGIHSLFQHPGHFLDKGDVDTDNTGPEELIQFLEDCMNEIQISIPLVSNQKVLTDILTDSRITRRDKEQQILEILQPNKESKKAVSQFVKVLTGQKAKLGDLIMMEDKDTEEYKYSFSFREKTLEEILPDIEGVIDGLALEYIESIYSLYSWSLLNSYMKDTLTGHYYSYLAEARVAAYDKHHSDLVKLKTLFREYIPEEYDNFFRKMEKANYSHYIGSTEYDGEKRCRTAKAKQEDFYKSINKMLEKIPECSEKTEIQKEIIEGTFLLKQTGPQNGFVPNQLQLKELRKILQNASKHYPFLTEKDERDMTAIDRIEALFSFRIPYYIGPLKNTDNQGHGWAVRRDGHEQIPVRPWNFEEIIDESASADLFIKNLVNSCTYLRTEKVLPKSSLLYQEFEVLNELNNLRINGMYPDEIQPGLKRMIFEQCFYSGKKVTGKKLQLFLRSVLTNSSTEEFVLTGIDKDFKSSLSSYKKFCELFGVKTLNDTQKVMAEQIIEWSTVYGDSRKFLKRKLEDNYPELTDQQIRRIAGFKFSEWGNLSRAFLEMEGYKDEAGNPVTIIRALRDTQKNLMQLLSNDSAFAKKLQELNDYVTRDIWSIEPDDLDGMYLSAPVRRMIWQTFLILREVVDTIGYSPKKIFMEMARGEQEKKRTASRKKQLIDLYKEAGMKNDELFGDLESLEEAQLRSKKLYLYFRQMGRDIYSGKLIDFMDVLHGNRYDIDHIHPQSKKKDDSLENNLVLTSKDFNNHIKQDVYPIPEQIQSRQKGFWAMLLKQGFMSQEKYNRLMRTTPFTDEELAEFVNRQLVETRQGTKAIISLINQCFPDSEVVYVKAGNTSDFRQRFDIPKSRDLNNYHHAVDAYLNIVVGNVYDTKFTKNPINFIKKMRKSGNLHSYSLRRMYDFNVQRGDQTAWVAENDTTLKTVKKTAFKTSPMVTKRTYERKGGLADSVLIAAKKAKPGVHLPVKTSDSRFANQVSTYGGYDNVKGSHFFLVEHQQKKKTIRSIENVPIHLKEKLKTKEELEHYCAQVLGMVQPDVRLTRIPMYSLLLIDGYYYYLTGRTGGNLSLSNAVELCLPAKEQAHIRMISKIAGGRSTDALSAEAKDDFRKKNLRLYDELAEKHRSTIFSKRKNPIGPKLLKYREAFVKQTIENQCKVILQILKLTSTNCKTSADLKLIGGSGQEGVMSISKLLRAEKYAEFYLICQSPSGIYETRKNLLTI
Experiment: cell_activity
Conditions: CRISPRi by binding TATA-box; PAM NNTA

Substance: ABCA1 TATA-box sgRNA ; ABCA1 TATA-box
- activity (% decrease of expression): 61.7
